Source: patent publication US20260049138A1 (Chugai, published 2026)
Substitutions are numbered along the chain they refer to. Numbers in names are those of the source.

B1: CE115HA000 D101L one-arm antibody (antibody, human IgG1, kappa, L234A L235A, N297A, name in Kabat numbering)
heavy: QVQLVESGGGVVQPGRSLRLSCAASGFTFSNAWMHWVRQAPGKGLEWVAQIKAKSNNYATYYAESVKGRFTISRDDSKNSLYLQMNSLKTEDTAVYYCRYVHYGAYYGVLAWGQGTTVTVSSASTKGPSVFPLAPSSKSTSGGTAALGCLVKDYFPEPVTVSWNSGALTSGVHTFPAVLQSSGLYSLSSVVTVPSSSLGTQTYICNVNHKPSNTKVDKKVEPKSCDKTHTCPPCPAPEAAGGPSVFLFPPKPKDTLMISRTPEVTCVVVDVSHEDPEVKFNWYVDGVEVHNAKTKPREEQYASTYRVVSVLTVLHQDWLNGKEYKCKVSNKALPAPIEKTISKAKGQPREPQVYTLPPSRCELTKNQVSLSCAVKGFYPSDIAVEWESNGQPENNYKTTPPVLDSDGSFFLVSKLTVDKSRWQQGNVFSCSVMHEALHNHYTQKSLSLSPDYKDDDDK
chain: EPKSSDKTHTCPPCPAPELLGGPSVFLFPPKPKDTLMISRTPEVTCVVVDVSHEDPEVKFNWYVDGVEVHNAKTKPREEQYNSTYRVVSVLTVLHQDWLNGKEYKCKVSNKALPAPIEKTISKAKGQPREPQVCTLPPSRDELTKNQVSLWCLVKGFYPSDIAVEWESNGQPENNYKTTPPVLDSDGSFFLYSKLTVDKSRWQQGNVFSCSVMHEALHNRYTQKSLSLSP
light: DIVMTQSPLSLPVTPGEPASISCRSSQSLVHSNRNTYLHWYQQKPGQAPRLLIYKVSNRFSGVPDRFSGSGSGTDFTLKISRVEAEDVGVYYCGQGTQVPYTFGQGTKLEIKRTVAAPSVFIFPPSDEQLKSGTASVVCLLNNFYPREAKVQWKVDNALQSGNSQESVTEQDSKDSTYSLSSTLTLSKADYEKHKVYACEVTHQGLSSPVTKSFNRGEC
B2: CE115HA000 D101M one-arm antibody (antibody, human IgG1, kappa, L234A L235A, N297A, name in Kabat numbering)
heavy: B1 heavy with L110M
chain: B1 chain
light: B1 light
B3: CE115HA000 D101N one-arm antibody (antibody, human IgG1, kappa, L234A L235A, N297A, name in Kabat numbering)
heavy: B1 heavy with L110N
chain: B1 chain
light: B1 light
B4: CE115HA000 D101P one-arm antibody (antibody, human IgG1, kappa, L234A L235A, N297A, name in Kabat numbering)
heavy: B1 heavy with L110P
chain: B1 chain
light: B1 light
B5: CE115HA000 D101Q one-arm antibody (antibody, human IgG1, kappa, L234A L235A, N297A, name in Kabat numbering)
heavy: B1 heavy with L110Q
chain: B1 chain
light: B1 light
B6: CE115HA000 D101R one-arm antibody (antibody, human IgG1, kappa, L234A L235A, N297A, name in Kabat numbering)
heavy: B1 heavy with L110R
chain: B1 chain
light: B1 light
B7: CE115HA000 D101S one-arm antibody (antibody, human IgG1, kappa, L234A L235A, N297A, name in Kabat numbering)
heavy: B1 heavy with L110S
chain: B1 chain
light: B1 light
B8: CE115HA000 D101T one-arm antibody (antibody, human IgG1, kappa, L234A L235A, N297A, name in Kabat numbering)
heavy: B1 heavy with L110T
chain: B1 chain
light: B1 light
B9: CE115HA000 D101V one-arm antibody (antibody, human IgG1, kappa, L234A L235A, N297A, name in Kabat numbering)
heavy: B1 heavy with L110V
chain: B1 chain
light: B1 light
B10: CE115HA000 D101Y one-arm antibody (antibody, human IgG1, kappa, L234A L235A, N297A, name in Kabat numbering)
heavy: B1 heavy with L110Y
chain: B1 chain
light: B1 light
B11: CE115HA000 E61A one-arm antibody (antibody, human IgG1, kappa, L234A L235A, N297A, name in Kabat numbering)
heavy: B1 heavy with E64A, L110D
chain: B1 chain
light: B1 light
B12: CE115HA000 E61D one-arm antibody (antibody, human IgG1, kappa, L234A L235A, N297A, name in Kabat numbering)
heavy: B1 heavy with E64D, L110D
chain: B1 chain
light: B1 light
B13: CE115HA000 E61P one-arm antibody (antibody, human IgG1, kappa, L234A L235A, N297A, name in Kabat numbering)
heavy: B1 heavy with E64P, L110D
chain: B1 chain
light: B1 light
B14: CE115HA000 E61Q one-arm antibody (antibody, human IgG1, kappa, L234A L235A, N297A, name in Kabat numbering)
heavy: B1 heavy with E64Q, L110D
chain: B1 chain
light: B1 light
B15: CE115HA000 F29V one-arm antibody (antibody, human IgG1, kappa, L234A L235A, N297A, name in Kabat numbering)
heavy: B1 heavy with F29V, L110D
chain: B1 chain
light: B1 light
B16: CE115HA000 G65D one-arm antibody (antibody, human IgG1, kappa, L234A L235A, N297A, name in Kabat numbering)
heavy: B1 heavy with G68D, L110D
chain: B1 chain
light: B1 light
B17: CE115HA000 G65E one-arm antibody (antibody, human IgG1, kappa, L234A L235A, N297A, name in Kabat numbering)
heavy: B1 heavy with G68E, L110D
chain: B1 chain
light: B1 light
B18: CE115HA000 G98A one-arm antibody (antibody, human IgG1, kappa, L234A L235A, N297A, name in Kabat numbering)
heavy: B1 heavy with G104A, L110D
chain: B1 chain
light: B1 light
B19: CE115HA000 G98D one-arm antibody (antibody, human IgG1, kappa, L234A L235A, N297A, name in Kabat numbering)
heavy: B1 heavy with G104D, L110D
chain: B1 chain
light: B1 light
B20: CE115HA000 G98H one-arm antibody (antibody, human IgG1, kappa, L234A L235A, N297A, name in Kabat numbering)
heavy: B1 heavy with G104H, L110D
chain: B1 chain
light: B1 light
B21: CE115HA000 G98K one-arm antibody (antibody, human IgG1, kappa, L234A L235A, N297A, name in Kabat numbering)
heavy: B1 heavy with G104K, L110D
chain: B1 chain
light: B1 light
B22: CE115HA000 G98P one-arm antibody (antibody, human IgG1, kappa, L234A L235A, N297A, name in Kabat numbering)
heavy: B1 heavy with G104P, L110D
chain: B1 chain
light: B1 light

Molecular target: T1, CD3ε homodimer protein (human, UniProt P07766 23-126, limits assumed, sulfo-tag or biotin label in the ECL assays; amine-coupled to the chip in SPR)
T1 construct: also called human CD3ε homodimer protein; CD3 (CD3ε)
Assay: SPR Biacore T200; CD3ε homodimer on CM4 chip;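 also: Single-residue variant antibodies injected as analyte over CD3ε homodimer immobilized by amine coupling, run at 25 °C in HBS-EP+ buffer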

T1 sequence (P07766 23-126 limits assumed): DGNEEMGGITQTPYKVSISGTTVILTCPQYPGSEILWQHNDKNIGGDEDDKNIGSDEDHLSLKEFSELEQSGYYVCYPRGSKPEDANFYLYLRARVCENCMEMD

Binder	ratio of amounts bound Z=Y/X (altered form / CE115HA000)
B1	0.62
B2	1.2
B3	2.02
B4	0.2
B5	2.35
B6	0.24
B7	1.16
B8	0.79
B9	1.33
B10	0.49
B11	1.09
B12	0.91
B13	1.07
B14	1.07
B15	0.36
B16	0.76
B17	0.78
B18	1.1
B19	0.26
B20	1.58
B21	2.83
B22	1.02
